The record followed here is paper doi:10.1101/756874, “Spontaneous oligomerization of BAK/BAX is suppressed by hetero-dimerization with MCL-1” (bioRxiv, 2019).

No end group written: not given here. *: point of attachment. TAMRA = 5-carboxytetramethylrhodamine, CN(C)c1ccc2c(-c3ccc(C(=O)*)cc3C(=O)[O-])c3ccc(=[N+](C)C)cc-3oc2c1

Sequences and labels used below:
B1: BAK (UniProt:Q16611, residues 16–185, C166S) (domain or fragment, human, UniProt Q16611 16-185, looked up)
chain: EPALPSASEEQVAQDTEEVFRSYVFYRHQQEQEAEGVAAPADPEMVTLPLQPSSTMGQVGRQLAIIGDDINRRYDSEFQTMLQHLQPTAENAYEYFTKIATSLFESGINWGRVVALLGFGYRLALHVYQHGLTGFLGQVTRFVVDFMLHHSIARWIAQRGGWVAALNLGN
notes: human BAK, residues 16-185, without the short disordered N-terminal segment and the C-terminal transmembrane helix; cysteine mutated to serine; Monomeric in buffer, oligomeric in detergent; the same construct in all experiments; Theoretical mass 19217.64 Da; also called 'wild-type' BAK (no cysteines); source: E. coli BL21(DE3), purified (chitin resin, intein self-cleavage with DTT, SEC); not …
B2: BAKBH3, TAMRA-labelled 35-residue peptide (UniProt:Q16611, residues 64–98, P64A) (peptide, UniProt Q16611 64-98, looked up)
peptide: {TAMRA}-ALQPSSTMGQVGRQLAIIGDDINRRYDSEFQTMLQ
notes: source: synthetic peptide, bought: Biomatik
B3: PUMABH3, un-labeled, recombinant (UniProt:Q9BXH1, residues 125–161, M144A) (peptide, UniProt Q9BXH1 125-161, looked up)
peptide: GVRGEEEQWAREIGAQLRRAADDLNAQYERRRQEEQQ
notes: human PUMA BH3, residues 125-161; theoretical mass 4442.75 Da is printed; not shown: His6, N-terminal, cleaved; GB1, N-terminal, cleaved
B4: MCL-1 (UniProt:Q07820, residues 168–327, C286S) (domain or fragment, human)
chain: GSEEEEDELYRQSLEIISRYLREQATGAKDTKPMGRSGATSRKALETLRRVGDGVQRNHETAFQGMLRKLDIKNEDDVKSLSRVMIHVFSDGVTNWGRIVTLISFGAFVAKHLKTINQESSIEPLAESITDVLVRTKRDWLVKQRGWDGFVEFFHVEDLEGG
notes: extra GS left at the N-terminus after removal of the tag with thrombin; human MCL-1, residues 168-327, without the disordered N-terminus and the C-terminal transmembrane region; Theoretical mass 18409.74 Da; source: E. coli C41(DE3), purified (Ni-NTA, thrombin cleavage, cation exchange, SEC); not shown: His6, N-terminal, cleaved
B5: BIDBH3, TAMRA-labelled 35-residue peptide (UniProt:P55957, residues 76–110) (peptide, UniProt P55957 76-110, looked up)
peptide: {TAMRA}-SESQEDIIRNIARHLAQVGDSMDRSIPPGLVNGLA
notes: as for B2

What all share (settings): both partners purified
Assay [1] addresses B4. Kind of assay: fluorescence polarisation; kinetics; BAK and MCL-1 pre-incubated in PS20 (20xCMC), then dye-labelled BH3 peptide added; change in TAMRA fluorescence polarisation fitted to a single exponential. A general note: Polarisation of emitted light reports the rotation of a fluorescent probe.
Assay [2] deals with B4. Briefly: out-competition dissociation kinetics (fluorescence); pre-formed equimolar complex of MCL-1 and TAMRA-labelled BH3 peptide diluted into 50–400 molar excess of un-labelled PUMABH3; TAMRA fluorescence intensity or polarisation; manual mixing or stopped-flow; buffer without detergent.
The target of assay [3] is B4. Kind of assay: stopped-flow association kinetics + other: out-competition dissociation kinetics; affinities of BH3 peptides for MCL-1 in buffer without detergent (Table 1); how Kd was obtained is not told in the text shown.
The target of assay [4] is T1, BAX (UniProt:Q07812, residues 1–171, C62S, C126S) (human, UniProt Q07812 1-171, C62S | C126S).
T1 construct: human BAX, residues 1-171, without the C-terminal transmembrane helix; cysteines mutated to serines; Theoretical mass 18933.65 Da; source: E. coli C41(DE3), purified (chitin resin, intein self-cleavage with DTT, SEC); not shown: intein, C-terminal, cleaved
Kind of assay: native MS; 5 μM total protein (equimolar), 100 mM ammonium acetate pH 7.0, PS20 5xCMC, at least 3 h at room temperature.

Assay [5] addresses B1. Kind of assay: SEC; proteins pre-incubated in detergent (PS20, C12E8 and others, at the multiples of CMC given in the legends); Superdex 200 Increase 10/300 GL, 50 mM sodium phosphate pH 7.0. Background: Size exclusion chromatography separates by hydrodynamic size, large species first.
Assay [6] addresses B4. The description is as above.

T1 sequence (Q07812 1-171 C62S/C126S, one chain of several): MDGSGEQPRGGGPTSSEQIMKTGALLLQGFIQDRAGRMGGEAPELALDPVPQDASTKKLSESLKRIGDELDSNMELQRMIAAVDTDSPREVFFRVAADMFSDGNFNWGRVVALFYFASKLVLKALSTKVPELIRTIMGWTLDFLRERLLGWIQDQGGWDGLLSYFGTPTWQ

For B1, the “half-life (displacement of BAK:MCL-1 hetero-dimers by PUMA)” value in assay [1] was about 17 min.
For orientation: koff means a measure of how fast the partners let go of each other. Read a low koff as slow dissociation. For orientation: Kd means the concentration at which binding is half-saturated. As for B2, the off-rate constant (koff) in assay [2] was found to be 0.00056 s⁻¹. In addition, the Kd in assay [3] came out at 0.08 nM.
As for B3, the binding result in assay [2] is “binds”.
In the case of B4, the binding result in assay [4] and in assay [5] was “binds” throughout.
Turning to B5, in assay [6], the binding result is “binds”.
